Results: patent US20220033501A1 (SHANGHAI PHARMAEXPLORER, published 2022)
Where a chain is given by its changes, count along the chain named. Blank lines part the entries; values can stand above or below the binder they belong to.

Assays:
[1] = target: T1, human TIM-3 protein on human PBMC (human, UniProt Q8TDQ0 22-301); assay: cell-based or functional assay
T1 sequence: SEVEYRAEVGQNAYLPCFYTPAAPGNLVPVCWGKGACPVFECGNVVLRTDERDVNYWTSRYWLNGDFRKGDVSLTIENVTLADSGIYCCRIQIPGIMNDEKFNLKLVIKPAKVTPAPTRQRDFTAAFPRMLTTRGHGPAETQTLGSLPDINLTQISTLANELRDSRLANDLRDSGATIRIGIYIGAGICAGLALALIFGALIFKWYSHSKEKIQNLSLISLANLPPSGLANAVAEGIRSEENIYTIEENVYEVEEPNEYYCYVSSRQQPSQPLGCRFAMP

[2] = target: T2, human TIM-3 ECD (antigen protein of the affinity test) (human, UniProt Q8TDQ0 22-200); assay: AHC sensor kinetics, antibody captured on sensor, antigen protein in solution, global 1:1 fit
T2 sequence: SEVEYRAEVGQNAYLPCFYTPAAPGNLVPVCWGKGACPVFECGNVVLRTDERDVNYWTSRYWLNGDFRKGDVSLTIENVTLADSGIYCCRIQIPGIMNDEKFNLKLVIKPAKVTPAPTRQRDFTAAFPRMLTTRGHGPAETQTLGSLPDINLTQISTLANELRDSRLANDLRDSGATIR
Protocol: First, AHC sensor was selected, and the sensor was balanced with buffer solution for 10 min, then the antibody to be tested was diluted to 5 μg/ml with buffer solution, and the antibody was solidified with the sensor for 3-5 min, with a signal value of 1-2 nm. The sensor was balanced again with buffer solution for 3 minutes, and then the antigen protein was diluted to 100 nM (the highest concentration was tentatively 100 nM) to bind and dissociate the antibody coupled by the sensor. If enough signal value was obtained, the antigen protein was diluted by several concentration gradients to analyze the binding and dissociation of antibody and antigen. At that end of each cycle, the sensor surface was regenerated with 10 mM, pH 1.5 Glycine. The kinetic rate constant needed to be subtracted the blank control, and the data was fitted with the global fit analysis method 1:1 combination model. The dissociation equilibrium rate constant (KD) was calculated according to the following formula: KD=kd/ka.

[3] = target: T3, murine TIM-3 protein with hFc tag (mTIM-3-hFc protein) (mouse; human, UniProt Q8VIM0 29-191); assay: ELISA, coated mTIM-3-hFc
T3 construct: Made in HEK293 cells; also called mouse TIM-3 extracellular domain protein; not shown: human IgG Fc fragment (hFc) of the pCpC vector
T3 chain: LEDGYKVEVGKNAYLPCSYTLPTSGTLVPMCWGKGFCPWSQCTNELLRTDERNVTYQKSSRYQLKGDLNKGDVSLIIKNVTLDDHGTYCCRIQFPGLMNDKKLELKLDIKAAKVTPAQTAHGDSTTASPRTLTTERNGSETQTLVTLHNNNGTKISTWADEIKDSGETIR

IFN-γ production, lymphocyte activation assay (donor Y), antibody 0.1 µg/ml, N = 1 [1]: 2710 pg/mL
IFN-γ production, lymphocyte activation assay (donor Y), antibody 0.1 µg/ml, N = 2 [1]: 2710 pg/mL
IFN-γ production, lymphocyte activation assay (donor Y), antibody 1 µg/ml, N = 1 [1]: 3400 pg/mL
IFN-γ production, lymphocyte activation assay (donor Y), antibody 1 µg/ml, N = 2 [1]: 3600 pg/mL
IFN-γ production, lymphocyte activation assay (donor Y), antibody 10 µg/ml, N = 1 [1]: 3500 pg/mL
IFN-γ production, lymphocyte activation assay (donor Y), antibody 10 µg/ml, N = 2 [1]: 4120 pg/mL
IFN-γ production, lymphocyte activation assay (donor Y), antibody concentration head printed '0' (fifth), N = 1 [1]: 1840 pg/mL
IFN-γ production, lymphocyte activation assay (donor Y), antibody concentration head printed '0' (fifth), N = 2 [1]: 2100 pg/mL
IFN-γ production, lymphocyte activation assay (donor Y), antibody concentration head printed '0' (fourth), N = 1 [1]: 2090 pg/mL
IFN-γ production, lymphocyte activation assay (donor Y), antibody concentration head printed '0' (fourth), N = 2 [1]: 1950 pg/mL
Kd [2]: 1.46 nM
koff [2]: 0.00155 s⁻¹
kon [2]: 1.06e+06 M⁻¹ s⁻¹
B1: fully human TIM-3 antibody 39E5H1 (antibody, human IgG4, V domains shown)
VH: EVQLVESGGGLVQPGGSLRLSCAASGFTFSSYWMSWVRQAPGKGLEWVANIKRGGSERYYVDSVKGRFTISGDNAKNSVYLQMNSLRAEDTAVYYCARGSNWFDPWGQGTLVTVSS
VL: ETVMTQSPAILSVSPGERATLSCRASQSVYSNLAWYQQKLGQAPRLLIYDASTRATGIPARFSGSGSGTEFTLTISSLQSEDFAVYYCQQYNNWPITFGQGTRLEIK
notes: also called antibody number 6

binding result [3]: no binding (tested: 66.667 nM)
B2: 34B6D8 fully human TIM-3 antibody (human IgG4, kappa) (antibody, V domains shown)
VH: B1 VH with S31T, S35T, G44R, R53Q, S56G, E57D, R58K, G72T, V79L
VL: B1 VL with T2I, I10T, V13M, S31D, L40P, D50G, V85L, N92T, N93H

binding result [3]: no binding (tested: 66.667 nM)
B3: 39E5H1 fully human TIM-3 antibody (human IgG4, kappa) (antibody, V domains shown)
VH: B1 VH
VL: B1 VL

IFN-γ production, lymphocyte activation assay (donor Y), antibody 0.1 µg/ml, N = 1 [1]: 2220 pg/mL
IFN-γ production, lymphocyte activation assay (donor Y), antibody 0.1 µg/ml, N = 2 [1]: 2550 pg/mL
IFN-γ production, lymphocyte activation assay (donor Y), antibody 1 µg/ml, N = 1 [1]: 3200 pg/mL
IFN-γ production, lymphocyte activation assay (donor Y), antibody 1 µg/ml, N = 2 [1]: 3230 pg/mL
IFN-γ production, lymphocyte activation assay (donor Y), antibody 10 µg/ml, N = 1 [1]: 3400 pg/mL
IFN-γ production, lymphocyte activation assay (donor Y), antibody 10 µg/ml, N = 2 [1]: 3910 pg/mL
IFN-γ production, lymphocyte activation assay (donor Y), antibody concentration head printed '0' (fifth), N = 1 [1]: 1810 pg/mL
IFN-γ production, lymphocyte activation assay (donor Y), antibody concentration head printed '0' (fifth), N = 2 [1]: 2120 pg/mL
IFN-γ production, lymphocyte activation assay (donor Y), antibody concentration head printed '0' (fourth), N = 1 [1]: 2030 pg/mL
IFN-γ production, lymphocyte activation assay (donor Y), antibody concentration head printed '0' (fourth), N = 2 [1]: 2260 pg/mL
Kd [2]: 4.05 nM
koff [2]: 0.00483 s⁻¹
kon [2]: 1.19e+06 M⁻¹ s⁻¹
B4: fully human TIM-3 antibody 134H3G6 (antibody, human IgG4, V domains shown)
VH: EVQLVESGGGLVQPGGSLRLSCAASGFTFSNSWMTWVRQAPGKGLEWVANIKQAGTEKYYVDSVKGRFTISRDNAKNSLYLQMNSLRAEDTAVYYCNSGSNYFDYWGQGTLVTVSS
VL: EIVMTQSPATLSVSPGERATLSCRARQNFYSNLAWYQQKPGQAPRLLIYGASTRATGIPARFSGSGSGTEFTLTISSLQSEDFAVYYCQQYNNWPLTFGGGTKVEIK
notes: also called antibody number 3

IFN-γ production, lymphocyte activation assay (donor Y), antibody 0.1 µg/ml, N = 1 [1]: 3210 pg/mL
IFN-γ production, lymphocyte activation assay (donor Y), antibody 0.1 µg/ml, N = 2 [1]: 2870 pg/mL
IFN-γ production, lymphocyte activation assay (donor Y), antibody 1 µg/ml, N = 1 [1]: 3550 pg/mL
IFN-γ production, lymphocyte activation assay (donor Y), antibody 1 µg/ml, N = 2 [1]: 3610 pg/mL
IFN-γ production, lymphocyte activation assay (donor Y), antibody 10 µg/ml, N = 1 [1]: 3960 pg/mL
IFN-γ production, lymphocyte activation assay (donor Y), antibody 10 µg/ml, N = 2 [1]: 3660 pg/mL
IFN-γ production, lymphocyte activation assay (donor Y), antibody concentration head printed '0' (fifth), N = 1 [1]: 2150 pg/mL
IFN-γ production, lymphocyte activation assay (donor Y), antibody concentration head printed '0' (fifth), N = 2 [1]: 2100 pg/mL
IFN-γ production, lymphocyte activation assay (donor Y), antibody concentration head printed '0' (fourth), N = 1 [1]: 2310 pg/mL
IFN-γ production, lymphocyte activation assay (donor Y), antibody concentration head printed '0' (fourth), N = 2 [1]: 2050 pg/mL
Kd [2]: 2.48 nM
koff [2]: 0.00397 s⁻¹
kon [2]: 1.6e+06 M⁻¹ s⁻¹
B5: fully human TIM-3 antibody 57F4E5 (antibody, human IgG4, V domains shown)
VH: EVQLVESGGGLVQPGGSLRLSCAASGFTFSSYWMSWVRQAPGKGLEWVANIKQDGSEKYYVDSVKGRFTISRDSAKNSLYLQMNSLRAEDTAMYFCARDSNFFDYWGQGTLVTVSS
VL: B4 VL with I2T, R26S, N28S, F29V, Y30S, Q38R, G50F, A51S
notes: also called antibody number 7
